Laboratory results from patent publication US20050287132A1, “Biliverdin reductase fragments and variants, and methods of using biliverdin reductase and such fragments and variants” (University of Rochester, priority 1999, published 2005).

Key:
[1] = biological target: protein kinase C (a mixture containing equal amounts of isozymes α, β and γ) (Promega)
[2] = Biliverdin reductase activity of E. coli expressed hBVR wild type and mutants (Example 1); assay type: biochemical, human; conditions: for Activity (nmol bilirubin/min/mg) pH 6.7 + NADH: pH 6.7, NADH cofactor; for Activity (nmol bilirubin/min/mg) pH 6.7 + NADH / Activity (nmol bilirubin/min/mg) pH 8.7 + NADPH: 25°; for Activity (nmol bilirubin/min/mg) pH 8.7 + NADPH: pH 8.7, NADPH cofactor
Protocol: SalI linkers are underlined in each primer. The products were digested with SalI and cloned into the vector pGEX 4T-2. Orientation was determined by restriction analysis and confirmed by sequencing. The ligation places the BVR coding region in frame with the GST protein of the vector. GST-BVR fusion proteins were purified from bacterial clones containing the plasmid, and grown overnight using a glutathione-sepharose 4B column (Pharmacia). The reductase portion of the fusion protein was released by thrombin protease treatment.
Activity was determined as previously described (Kutty et al., J. Biol. Chem. 256:3956-3962 (1981); Huang et al., J. Biol. Chem. 264:7844-7849 (1989), which are hereby incorporated by reference). Activity was determined in a 1 ml assay volume that contained 0.1 M Tris/HCl, pH 8.7 NADPH (100 μM), and biliverdin (5 μM). Reductase activity was also measured using NADH (1 mM) as the cofactor; in this case 0.1 M potassium phosphate pH 6.75, was substituted for Tris/HCl. SDS/PAGE was performed by the method of Laemmli, Nature 227:680-685 (1970), which is hereby incorporated by reference. Western blot analysis was performed using anti-serum to human kidney biliverdin reductase as previously described (Maines et al., Arch. Biochem. Biophys. 300:320-326 (1993), which is hereby incorporated by reference). The relative amounts of immunoreactive protein were determined by scanning the blot using a laser densitometer and comparing the area under the peak for each mutant with the wild type. The rate of activity was measured as the increase in 450 nm absorbance at 25° C. Specific activity is expressed as nmol bilirubin/min/ mg protein.

[3] = Biliverdin reductase catalytic activity of recombinant wild type and mutant hBVR (Example 2, FIG. 3); assay type: biochemical, human
Protocol: FIGS. 3A-C are graphs depicting the effects of mutation of Gly^17, Ser^149, and Lys^296 on BVR catalytic activity. Purified preparations of recombinant wild type and mutant BVR with substitution of Gly^17 (FIG. 3A), Ser^149 (FIG. 3B), or Lys^296 (FIG. 3C) with Ala were assessed for BVR activity at pH 6.5 using NADH as cofactor and at pH 8.7 with NADPH as cofactor. Values presented are in percent wild type activity for each pH. The specific activity of the wild type preparation was 1744 nmol bilirubin produced min^−1 mg^−1 at pH 6.5 and 1147 nmol bilirubin produced min^−1 mg^−1 at pH 8.7. Values presented are representative of 2-4 determinations.
GST-BVR fusion proteins were prepared as described in Example 1. Human kidney biliverdin reductase was purified to homogeneity as described by Maines et al., Arch. Biochem. Biophys. 300:320-326 (1993), which is hereby incorporated by reference. The purified reductase preparations were judged to be homogenous by SDS-PAGE. Protein concentration was determined by the method of Bradford, Anal. Biochem. 72:248-254 (1976), which is hereby incorporated by reference.
Activity was determined as previously described by Huang et al., J. Biol. Chem. 264:7844-7849 (1989), which is hereby incorporated by reference, using NADPH as the cofactor at pH 8.7 in 0.1 M […] or NADH at pH 6.5 in […]. The rate of activity was measured as the increase in 450 nm absorbance at 25° C. Specific activity is expressed in units/mg protein, where 1 unit catalyzes the formation of 1 nmol bilirubin/min.

[4] = biological target: T1, biliverdin reductase (Homo sapiens, UniProt P53004, A154S/E160D/G155D/G17A); assay: Phosphorylation state of hBVR, SDS-PAGE immunoblot with anti-phospho antibodies; assay type: biochemical; conditions: versus wild type
T1 construct: used to amplify the full-length cDNA by PCR as described in purification of cloned reductase; GST (N, cleaved yes); made in house; host or cells: E. coli
T1 sequence (P53004 1-296 G17A/A154S/G155D/E160D): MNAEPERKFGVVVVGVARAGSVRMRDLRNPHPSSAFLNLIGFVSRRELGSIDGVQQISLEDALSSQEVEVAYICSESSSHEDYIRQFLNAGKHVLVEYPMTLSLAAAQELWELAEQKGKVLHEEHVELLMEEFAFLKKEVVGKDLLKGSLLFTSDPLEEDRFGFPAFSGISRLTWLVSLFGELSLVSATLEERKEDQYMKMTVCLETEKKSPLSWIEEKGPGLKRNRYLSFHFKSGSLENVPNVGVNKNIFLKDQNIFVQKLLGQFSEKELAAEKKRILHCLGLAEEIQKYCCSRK
Protocol: (§1) Purified protein was subjected to 12.5% SDS-PAGE and the protein transferred to PVDF membrane. The membrane was subsequently treated as for Western blotting, using anti-phosphoserine, anti-phosphotyrosine or anti-phosphothreonine, at 2 μg/ml, or a mixture of all three antibodies as the primary antibody. The secondary antibody was goat anti-rabbit horseradish peroxidase at a 1:1000 dilution and detection was carried out using the ECL reagent kit (NEN Life Sciences) according to the manufacturer's instructions.

[5] = test system: biliverdin reductase; assay: as above; assay type: biochemical, human; conditions: anti-phospho mix blot, corrected for protein loading
Protocol: as §1

[6] = test system: HeLa cells; assay: Nuclear translocation of hemagglutinin-tagged BVR constructs after 8-bromo-cGMP, immunofluorescence; assay type: cell-based, human; conditions: 500 μM 8-bromo-cGMP, 5 min (up to 60 min)
Protocol: HeLa cells were grown on glass cover slips in DMEM medium containing 10% FBS under an atmosphere of 5% CO2. Cells were transfected with different BVR constructs using Lipofectamine, as described by the manufacturer. Briefly, cells were treated with a mixture of 2 μg DNA and 20 μl Lipofectamine for 5 h followed by the addition of DMEM medium. After 48 h, cells were treated with 500 μM 8-bromo-cGMP for 5, 20 or 60 min, fixed with 4% paraformaldehyde for 10 min. Cells were then rinsed with phosphate-buffered saline, incubated with 5% goat serum to block nonspecific binding sites and then with monoclonal anti hemagglutinin primary antibody and FITC conjugated secondary antibody. Cells were visualized by direct fluorescence microscopy.

B1: rat biliverdin reductase as used in the PKC activity assays (protein)
chain: AEPKRKFGVVVVGVGRAGSVRLRDLKDPRSAAFLNLIGFVSRRELGSLDEVRQISLEDALRSQEIDVAYICSESSSHEDYIRQFLQAGKHVLVEYPMTLSFAAAQELWELAAQKGRVLHEEHVELLMEEFEFLRREVLGKELLKGSLRFTASPLEEERFGFPAFSGISRLTWLVSLFGELSLISATLEERKEDQYMKMTVQLETQNKGLLSWIEEKGPGLKRNRYVNFQFTSGSLEEVPSVGVNKNIFLKDQDIFVQKLLDQVSAEDLAAEKKRIMHCLGLASDIQKLCHQKK
- Km of the PKC reaction for the substrate MBP, upon addition of BVR [1]: substrate Km increasing from 0.145 to 0.16 upon addition of BVR to the reaction
- PKC activity, incorporation of 32P into MBP, after 15 min preincubation of PKC with varying concentrations of BVR [1]: incorporation of ^32P into MBP was increased in a dose-dependent manner in the presence of BVR
- Vmax of the PKC reaction with respect to ATP, in the presence of 50 µM BVR [1]: increased from 3.3 to 4.9 and 1.7 to 2.9 pmol/min, respectively
- Vmax of the PKC reaction with respect to MBP, in the presence of 50 µM BVR [1]: increased from 3.3 to 4.9 and 1.7 to 2.9 pmol/min, respectively

B2: Gly^17: hBVR SEQ. ID. No. 1 with Gly^17→Ala within the nucleotide binding domain (protein, listed as Homo sapiens)
chain: MNAEPERKFGVVVVGVARAGSVRMRDLRNPHPSSAFLNLIGFVSRRELGSIDGVQQISLEDALSSQEVEVAYICSESSSHEDYIRQFLNAGKHVLVEYPMTLSLAAAQELWELAEQKGKVLHEEHVELLMEEFAFLKKEVVGKDLLKGSLLFTSDPLEEDRFGFPAFSGISRLTWLVSLFGELSLVSATLEERKEDQYMKMTVCLETEKKSPLSWIEEKGPGLKRNRYLSFHFKSGSLENVPNVGVNKNIFLKDQNIFVQKLLGQFSEKELAAEKKRILHCLGLAEEIQKYCCSRK
- Activity (nmol bilirubin/min/mg) pH 6.7 + NADH [2]: 698 nmol bilirubin/min/mg
- reductase activity relative to the control (wild type) ([2]; pH 6.7 with NADH): 20-25%
- Activity (nmol bilirubin/min/mg) pH 8.7 + NADPH [2]: 0 nmol bilirubin/min/mg
- reductase activity relative to the control (wild type) ([2]; pH 8.7 with NADPH): inactive
- BVR catalytic activity versus wild type ([3]; pH 6.5, NADH): essentially inactive
- BVR catalytic activity versus wild type ([3]; pH 8.7, NADPH): essentially inactive
- reduction in phosphorylation ([4]; anti-phospho mix, laser densitometry): approximately 50%
- reduction of phosphoserine signal ([4]; anti-phosphoserine): approximately 50%
- reduction in phosphothreonine signal ([4]; anti-phosphothreonine): not evident
- reduction of phosphotyrosine signal ([4]; anti-phosphotyrosine): approximately 50%

B3: Ser^149: hBVR SEQ. ID. No. 1 with Ser^149→Ala within the kinase motif of the leucine zipper (protein, listed as Homo sapiens)
chain: MNAEPERKFGVVVVGVGRAGSVRMRDLRNPHPSSAFLNLIGFVSRRELGSIDGVQQISLEDALSSQEVEVAYICSESSSHEDYIRQFLNAGKHVLVEYPMTLSLAAAQELWELAEQKGKVLHEEHVELLMEEFAFLKKEVVGKDLLKGALLFTSDPLEEDRFGFPAFSGISRLTWLVSLFGELSLVSATLEERKEDQYMKMTVCLETEKKSPLSWIEEKGPGLKRNRYLSFHFKSGSLENVPNVGVNKNIFLKDQNIFVQKLLGQFSEKELAAEKKRILHCLGLAEEIQKYCCSRK
- Activity (nmol bilirubin/min/mg) pH 6.7 + NADH [2]: 0 nmol bilirubin/min/mg
- reductase activity relative to the control (wild type) ([2]; pH 6.7 with NADH): inactive
- Activity (nmol bilirubin/min/mg) pH 8.7 + NADPH [2]: 231 nmol bilirubin/min/mg
- reductase activity relative to the control (wild type) ([2]; pH 8.7 with NADPH, listed as Ser^149 mutant): minimal activity
- BVR catalytic activity versus wild type ([3]; pH 6.5, NADH): essentially inactive
- BVR catalytic activity versus wild type ([3]; pH 8.7, NADPH): essentially inactive
- autophosphorylation activity [5]: essentially comparable to that of the wild type protein

B4: Lys^296 mutant: hBVR with Lys^296→Ala at the C terminus within a substrate binding domain (protein, UniProt P53004 3-296, looked up, variant K296A)
Biliverdin reductase A: AEPERKFGVVVVGVGRAGSVRMRDLRNPHPSSAFLNLIGFVSRRELGSIDGVQQISLEDALSSQEVEVAYICSESSSHEDYIRQFLNAGKHVLVEYPMTLSLAAAQELWELAEQKGKVLHEEHVELLMEEFAFLKKEVVGKDLLKGSLLFTAGPLEEERFGFPAFSGISRLTWLVSLFGELSLVSATLEERKEDQYMKMTVCLETEKKSPLSWIEEKGPGLKRNRYLSFHFKSGSLENVPNVGVNKNIFLKDQNIFVQKLLGQFSEKELAAEKKRILHCLGLAEEIQKYCCSRA
- BVR catalytic activity versus wild type ([3]; pH 6.5, NADH): doubling of activity
- BVR catalytic activity versus wild type ([3]; pH 8.7, NADPH): doubling of activity
- autophosphorylation activity [5]: essentially comparable to that of the wild type protein

B5: NLS mutant: hemagglutinin tagged hBVR with amino acids 222-227 changed from GLKRNR to VIGSTG (SEQ. ID. No. 25) (protein, UniProt P53004 3-296, looked up, variant G222V L223I K224G R225S N226T R227G)
Biliverdin reductase A: AEPERKFGVVVVGVGRAGSVRMRDLRNPHPSSAFLNLIGFVSRRELGSIDGVQQISLEDALSSQEVEVAYICSESSSHEDYIRQFLNAGKHVLVEYPMTLSLAAAQELWELAEQKGKVLHEEHVELLMEEFAFLKKEVVGKDLLKGSLLFTAGPLEEERFGFPAFSGISRLTWLVSLFGELSLVSATLEERKEDQYMKMTVCLETEKKSPLSWIEEKGPVIGSTGYLSFHFKSGSLENVPNVGVNKNIFLKDQNIFVQKLLGQFSEKELAAEKKRILHCLGLAEEIQKYCCSRK
modifications: hemagglutinin tag
- nuclear localization in response to 8-bromo-cGMP [6]: not detected
